Data published in patent publication US20230002480A1.

Columns and labels:
Assay in all cases: cell-based or functional assay
[1] = biological target: HIV-1 Env of pseudovirus 1056_10_TA11_1826 (HIV-1)
[2] = biological target: HIV-1 Env of pseudovirus 191084 B7-19 (HIV-1)
[3] = biological target: HIV-1 Env of pseudovirus 246F C1G (HIV-1)
[4] = biological target: HIV-1 Env of pseudovirus 7030102001E5(Rev-) (HIV-1)
[5] = biological target: HIV-1 Env of pseudovirus 9004SS_A3_4 (HIV-1)
[6] = biological target: HIV-1 Env of pseudovirus 928-28 (HIV-1)
[7] = biological target: HIV-1 Env of pseudovirus AC10.0.29 (HIV-1)
[8] = biological target: HIV-1 Env of pseudovirus C2101.c01 (HIV-1)
[9] = biological target: HIV-1 Env of pseudovirus CAP210.2.00.E8 (HIV-1)
[10] = biological target: HIV-1 Env of pseudovirus CNE20 (HIV-1)
[11] = biological target: HIV-1 Env of pseudovirus CNE21 (HIV-1)
[12] = biological target: HIV-1 Env of pseudovirus CNE52 (HIV-1)
[13] = biological target: HIV-1 Env of pseudovirus Ce0393_C3 (HIV-1)
[14] = biological target: HIV-1 Env of pseudovirus Ce0682_E4 (HIV-1)
[15] = biological target: HIV-1 Env of pseudovirus Ce2060_G9 (HIV-1)
[16] = biological target: HIV-1 Env of pseudovirus Ce704809221_1B3 (HIV-1)
[17] = biological target: HIV-1 Env of pseudovirus Du172.17 (HIV-1)
[18] = biological target: HIV-1 Env of pseudovirus Q461.e2 (HIV-1)
[19] = biological target: HIV-1 Env of pseudovirus T250-4 (HIV-1)
[20] = biological target: HIV-1 Env of pseudovirus T251-18 (HIV-1)
[21] = biological target: HIV-1 Env of pseudovirus T255-34 (HIV-1)
[22] = biological target: HIV-1 Env of pseudovirus T257-31 (HIV-1)
[23] = biological target: HIV-1 Env of pseudovirus THRO4156.18 (HIV-1)
[24] = biological target: HIV-1 Env of pseudovirus TRJO4551.58 (HIV-1)
[25] = biological target: HIV-1 Env of pseudovirus WITO4160.33 (HIV-1)
[26] = biological target: HIV-1 Env of pseudovirus X1193_c1 (HIV-1)
[27] = biological target: HIV-1 Env of pseudovirus X2088_c9 (HIV-1)
[28] = biological target: HIV-1 Env of pseudovirus ZM135M.PL10a (HIV-1)
[29] = biological target: HIV-1 Env of pseudovirus ZM197M.PB7 (HIV-1)
[30] = biological target: HIV-1 Env of pseudovirus ZM214M.PL15 (HIV-1)
[31] = biological target: HIV-1 Env of pseudovirus ZM249M.PL1 (HIV-1)
[32] = biological target: HIV-1 Env of pseudovirus 0815.v3.c3 (HIV-1)
[33] = biological target: HIV-1 Env of pseudovirus 3301.v1.c24 (HIV-1)
[34] = biological target: HIV-1 Env of pseudovirus 6540.v4.c1 (HIV-1)
[35] = biological target: HIV-1 Env of pseudovirus 6811.v7.c18 (HIV-1)
[36] = biological target: HIV-1 Env of pseudovirus X2131_C1_B5 (HIV-1)

## N49P7.1 (antibody)
[1]
  neutralization IC50: 0.171 mg/L
  neutralization IC80: 0.603 mg/L
  neutralization MPI: 100
[2]
  neutralization IC50: 0.069 mg/L
  neutralization IC80: 0.2 mg/L
  neutralization MPI: 100
[3]
  neutralization IC50: 0.049 mg/L
  neutralization IC80: 0.165 mg/L
  neutralization MPI: 100
[4]
  neutralization IC50: 0.11 mg/L
  neutralization IC80: 0.498 mg/L
  neutralization MPI: 100
[5]
  neutralization IC50: 0.221 mg/L
  neutralization IC80: 0.841 mg/L
  neutralization MPI: 100
[6]
  neutralization IC50: 0.23 mg/L
  neutralization IC80: 0.775 mg/L
  neutralization MPI: 100
[7]
  neutralization IC50: 5.31 mg/L
  neutralization IC80: 46.8 mg/L
  neutralization MPI: 85
[8]
  neutralization IC50: 0.076 mg/L
  neutralization IC80: 0.425 mg/L
  neutralization MPI: 100
[9]
  neutralization IC50: 2.03 mg/L
  neutralization IC80: 7.3 mg/L
  neutralization MPI: 99
[10]
  neutralization IC50: 0.079 mg/L
  neutralization IC80: 0.224 mg/L
  neutralization MPI: 100
[11]
  neutralization IC50: 1.58 mg/L
  neutralization IC80: 12.2 mg/L
  neutralization MPI: 96
[12]
  neutralization IC50: 0.021 mg/L
  neutralization IC80: 0.058 mg/L
  neutralization MPI: 100
[13]
  neutralization IC50: 0.23 mg/L
  neutralization IC80: 1.02 mg/L
  neutralization MPI: 100
[14]
  neutralization IC50: 0.026 mg/L
  neutralization IC80: 0.099 mg/L
  neutralization MPI: 100
[15]
  neutralization IC50: 0.473 mg/L
  neutralization IC80: 2.41 mg/L
  neutralization MPI: 100
[16]
  neutralization IC50: 0.211 mg/L
  neutralization IC80: 1.35 mg/L
  neutralization MPI: 100
[17]
  neutralization IC50: 0.185 mg/L
  neutralization IC80: 0.748 mg/L
  neutralization MPI: 100
[18]
  neutralization IC50: 0.329 mg/L
  neutralization IC80: 1.14 mg/L
  neutralization MPI: 100
[19]
  neutralization IC50: 2.27 mg/L
  neutralization IC80: 24.7 mg/L
  neutralization MPI: 89
[20]
  neutralization IC50: 0.229 mg/L
  neutralization IC80: 0.794 mg/L
  neutralization MPI: 100
[21]
  neutralization IC50: 0.094 mg/L
  neutralization IC80: 0.447 mg/L
  neutralization MPI: 100
[22]
  neutralization IC50: 0.209 mg/L
  neutralization IC80: 1.04 mg/L
  neutralization MPI: 100
[23]
  neutralization IC50: 3.07 mg/L
  neutralization IC80: 12.6 mg/L
  neutralization MPI: 98
[24]
  neutralization IC50: 0.156 mg/L
  neutralization IC80: 0.529 mg/L
  neutralization MPI: 100
[25]
  neutralization IC50: 0.121 mg/L
  neutralization IC80: 0.326 mg/L
  neutralization MPI: 100
[26]
  neutralization IC50: 0.035 mg/L
  neutralization IC80: 0.144 mg/L
  neutralization MPI: 100
[27]
  neutralization IC50: 0.199 mg/L
  neutralization IC80: 0.726 mg/L
  neutralization MPI: 100
[28]
  neutralization IC50: 0.314 mg/L
  neutralization IC80: 1.11 mg/L
  neutralization MPI: 99
[29]
  neutralization IC50: 0.144 mg/L
  neutralization IC80: 0.539 mg/L
  neutralization MPI: 100
[30]
  neutralization IC50: 0.257 mg/L
  neutralization IC80: 0.853 mg/L
  neutralization MPI: 100
[31]
  neutralization IC50: 0.071 mg/L
  neutralization IC80: 0.239 mg/L
  neutralization MPI: 100

## N49P11 (antibody)
[32]
  IC50: 0.106 mg/L
  IC80: 0.372 mg/L
  MPI: 100
[2]
  IC50: 0.065 mg/L
  IC80: 0.276 mg/L
  MPI: 100
[33]
  IC50: 1.98 mg/L
  IC80: 15.7 mg/L
  MPI: 100
[34]
  IC50: 3.05 mg/L
  IC80: 16.3 mg/L
  MPI: 100
[35]
  IC50: 3.68 mg/L
  IC80: 14.6 mg/L
  MPI: 100
[5]
  IC50: 0.296 mg/L
  IC80: 3.24 mg/L
  MPI: 100
[6]
  IC50: 5.46 mg/L
  IC80: 25 mg/L
  MPI: 100
[8]
  IC50: 0.084 mg/L
  IC80: 0.505 mg/L
  MPI: 100
[19]
  IC50: 6.28 mg/L
  IC80: 25.6 mg/L
  MPI: 100
[20]
  IC50: 3.05 mg/L
  IC80: 16.7 mg/L
  MPI: 100
[21]
  IC50: 0.418 mg/L
  IC80: 3.83 mg/L
  MPI: 100
[22]
  IC50: 0.7 mg/L
  IC80: 2.9 mg/L
  MPI: 100
[26]
  IC50: 0.179 mg/L
  IC80: 1.09 mg/L
  MPI: 100
[27]
  IC50: 6.82 mg/L
  IC80: 22 mg/L
  MPI: 100
[36]
  IC50: 5.36 mg/L
  IC80: 18.4 mg/L
  MPI: 100
